Source: patent US12404312B2, “Engineered VEGF variants for retinal neuroprotection, promotion of axon growth and axon regeneration” (Massachusetts Eye and Ear Infirmary, priority 2018, dated 2025)

B1: VEGF189: natural VEGF189 isoform with strong heparin-binding domain, constructed with a myc-tag (SEQ ID NO: 3), tested for comparison (protein)
chain: MNFLLSWVHWSLALLLYLHHAKWSQAAPMAEGGGQNHHEVVKFMDVYQRSYCHPIETLVDIFQEYPDEIEYIFKPSCVPLMRCGGCCNDEGLECVPTEESNITMQIMRIKPHQGQHIGEMSFLQHNKCECRPKKDRARQEKKSVRGKGKGQKRKRKKSRYKSWSVPCGPCSERRKHLFVQDPQTCKCSCKNTDSRCKARQLELNERTCRCDKPRRKLGNGNGEQKLISEEDLGN
modifications: myc tag
B2: eVEGF-38: engineered covalently linked dimer of VEGF121 isoform with a 38 amino acid glycine-rich linker connected to a GPI anchor (SEQ ID NO: 1) (protein)
chain: MNFLLSWVHWSLALLLYLHHAKWSQAAPMAEGGGQNHHEVVKFMDVYQRSYCHPIETLVDIFQEYPDEIEYIFKPSCVPLMRCGGCCNDEGLECVPTEESNITMQIMRIKPHQGQHIGEMSFLQHNKCECRPKKDRARQEKCDKPRRGGSSGGSSGGSGGGTGGGSGAPMAEGGGQNHHEVVKFMDVYQRSYCHPIETLVDIFQEYPDEIEYIFKPSCVPLMRCGGCCNDEGLECVPTEESNITMQIMRIKPHQGQHIGEMSFLQHNKCECRPKKDRARQEKCDKPRRGNGNGEQKLISEEDLKLAAAGNGGNGNGNGDGNGALCNGAGFATPVTLALVPALLATFWSLL
B3: eVEGF-53: engineered covalently linked dimer of VEGF121 isoform with a 53 amino acid glycine-rich linker connected to a GPI anchor (SEQ ID NO: 2) (protein)
chain: MNFLLSWVHWSLALLLYLHHAKWSQAAPMAEGGGQNHHEVVKFMDVYQRSYCHPIETLVDIFQEYPDEIEYIFKPSCVPLMRCGGCCNDEGLECVPTEESNITMQIMRIKPHQGQHIGEMSFLQHNKCECRPKKDRARQEKCDKPRRGGSSGGSSGGSGGGTGGGSGAPMAEGGGQNHHEVVKFMDVYQRSYCHPIETLVDIFQEYPDEIEYIFKPSCVPLMRCGGCCNDEGLECVPTEESNITMQIMRIKPHQGQHIGEMSFLQHNKCECRPKKDRARQEKCDKPRRGNGNGNGNGNGNGNEQKLISEEDLKLAAAGNGNGNGNGNGNGNGDGNGGALCNGAGFATPVTLALVPALLATFWSLL

Tests used:
VEGFR2 = molecular target: T1, VEGFR2 (Homo sapiens, UniProt P35968); assay: VEGFR2 activation (p-VEGFR2 western blot) in transfected hREC; assay type: cell-based; conditions: hREC transfected with expression construct; lysate at 24 and 48 hours post transfection; vs GFP control
T1 construct: Human retinal endothelial cells (hREC) that express VEGFR2; endogenous in cells; host or cells: human retinal endothelial cells (hREC)
Method: Human retinal endothelial cells (hREC) that express VEGFR2 were transfected with eVEGF-38 or eVEGF-53, or VEGF189, or control GFP (ctr) expression construct and total cell lysate was collected at 24 and 48 hours post transfection. Activation of VEGFR2 was determined by the levels of VEGFR2 phosphorylation (p-VEGFR2). Data=mean±SD, **P<0.01 by unpaired t-test, n=3 independent western blot assays.
(§1) eVEGF-38 and eVEGF-53 localize to the cell membrane and comprise myc-tags. VEGF189 was constructed with a myc-tag. The constructs were packaged into adeno-associated virus serotype 2 (AAV2) for efficient transduction and expression in human microvascular endothelial cells (hREC) and RGC. Transgenes expression was measured by western blot, qPCR and immunostaining. In hREC, VEGFR2, VCAM-1, E-selectin and tissue factor expression were measured by immunostaining or qPCR. VEGFR2 signaling, axon length, and synapse formation in RGC were measured by immunostaining. RGC survival was measured by TUNEL staining and intracellular [Ca2+] was measured using fura2/AM calcium imaging.

[1] = system: human microvascular endothelial cells (hREC); assay: Pro-inflammatory markers (VCAM-1, E-selectin, tissue factor) in hREC by immunostaining or qPCR; assay type: cell-based; conditions: compared with GFP/AAV2 control, p<0.05
Method: as §1

primary mouse RGC [2] = assay: Survival of primary mouse RGC in culture; assay type: cell-based; conditions: control 22% survival, P<0.001
Method: FIG. 3A is a bar graph showing the results from experiments using primary mouse RGC isolated from P3 pups were transduced with different AAVs to overexpress eVEGF-38, eVEGF-53, VEGF189, or the control GFP on the day of isolation (day 0), or treated with exogenous recombinant VEGF121 protein on day 2. The number viable RGC was determined by immunostaining for beta III tubulin while total cell number per field was determined by DAPI staining on day 3 of culture.
FIG. 3B is a bar graph showing that the majority of the viable RGC were expressing the eVEGF-38, eVEGF-53, or VEGF189, whereas the GFP-expressing RGC were not protected in culture. Data=mean±SD, ***P<0.001 by unpaired t-test, n=15 different fields total (5 fields/well) from three independent wells of primary RGC.
as §1

primary mouse RGC [3] = assay: H2O2-induced cell death of primary mouse RGC (TUNEL staining); assay type: cell-based; conditions: P<0.05
Method: as §1, with “Cell death was analyzed by TUNEL staining” for “eVEGF-38”, “transgene expression by immunostaining. Percentage of viable RGC was determined by: (TUNEL-negative RGC with transgenes expression)/(total” for “eVEGF-53 localize to the”, “number by DAPI staining). […]” for “membrane and comprise myc-tags. VEGF189 was constructed with a myc-tag.”

primary mouse RGC [4] = assay: Axon and neurite formation in primary mouse RGC; assay type: cell-based; conditions: for average axon length per RGC / average number of neurites per RGC / percentage of RGC with axons longer than 3× cell body length / average number of branch points of neurite per RGC: primary RGC; for average axon length per RGC / average number of neurites per RGC / percentage of RGC with axons longer than 3× cell body length: compared to the GFP control; for average number of branch points of neurite per RGC: compared to control
From the text: FIG. 6 is a series of photomicrographs showing correlative fluorescence and electron microscopy showing extra long axons (>1400 μm) from some of the eVEGF-38 overexpressing primary RGC. Green arrows, eVEGF-38 overexpressing cells; blue arrows, untransduced primary mouse RGC.
FIGS. 7A and 7B are a series of bar graphs and dot plots showing that VEGFR2 signaling is required for the formation of long axons by primary RGC overexpressing eVEGF-38, eVEGF-53, and VEGF189. […] Recombinant VEGF121 protein was added to a final concentration of 2.5 nM. […] Labels: 38, eVEGF-38; 53, eVEGF-53; 189, VEGF189; UT, untreated. Data=mean±SD, n=15 fields from 3 independent wells per group, *P<0.05, **P<0.01, ***P<0.001, one-way ANOVA.
as §1

primary RGC = assay: Synapse formation / synaptophysin expression in primary RGC; assay type: cell-based, mouse; conditions: for synaptic vesicle marker synaptophysin in axons and neurites: primary RGC overexpressing the transgene
Method: as §1

RGC = assay: Intracellular [Ca2+] in RGC by fura2/AM calcium imaging; assay type: cell-based, mouse; conditions: upon carbachol and NMDA stimulation; compared to control
Method: as §1

primary mouse RGC [5] = assay: Gene expression analysis of primary mouse RGC; assay type: cell-based; conditions: overexpressing primary mouse RGC; vs GFP control
From the text: FIG. 9 is a series of bar graphs showing that overexpression of eVEGF-38 in primary RGC suppresses genes that are associated with cell death and suppression of axon formation, but induces genes that are associated with axon growth and neuronal function. Label: 38, eVEGF-38; Ctr, GFP control. Data=mean±SD, n=3 independent wells of primary RGC, *P<0.05, **P<0.01, ***P<0.001 by unpaired t-test.
Furthermore, eVEGF-38 and eVEGF-53 chimeric polypeptides and VEGF189 expression enhanced axons and neurites formation of primary mouse RGCs (FIGS. 5A-C, FIG. 6, and FIGS. 7A-B), supported synaptogenesis and likely neuronal function (FIG. 8), which are consistent with the role of VEGF in promoting neurogenesis and neuronal function in vitro and in vivo. […] Together, the data support overexpression of eVEGF-38, eVEGF-53 and the natural VEGF189 isoform in RGC promotes cell-autonomous RGC survival, axon growth and regeneration, and neuronal function, and is useful and a therapeutic agent for treatment of glaucoma. The chimeric polypeptides can be used therapeutically via a gene therapy approach (AAV) for eVEGF-38, eVEGF-53 and VEGF189. Activity is tested in animal models of glaucoma and optic nerve injury/regeneration.

T1 sequence (P35968 20-1356): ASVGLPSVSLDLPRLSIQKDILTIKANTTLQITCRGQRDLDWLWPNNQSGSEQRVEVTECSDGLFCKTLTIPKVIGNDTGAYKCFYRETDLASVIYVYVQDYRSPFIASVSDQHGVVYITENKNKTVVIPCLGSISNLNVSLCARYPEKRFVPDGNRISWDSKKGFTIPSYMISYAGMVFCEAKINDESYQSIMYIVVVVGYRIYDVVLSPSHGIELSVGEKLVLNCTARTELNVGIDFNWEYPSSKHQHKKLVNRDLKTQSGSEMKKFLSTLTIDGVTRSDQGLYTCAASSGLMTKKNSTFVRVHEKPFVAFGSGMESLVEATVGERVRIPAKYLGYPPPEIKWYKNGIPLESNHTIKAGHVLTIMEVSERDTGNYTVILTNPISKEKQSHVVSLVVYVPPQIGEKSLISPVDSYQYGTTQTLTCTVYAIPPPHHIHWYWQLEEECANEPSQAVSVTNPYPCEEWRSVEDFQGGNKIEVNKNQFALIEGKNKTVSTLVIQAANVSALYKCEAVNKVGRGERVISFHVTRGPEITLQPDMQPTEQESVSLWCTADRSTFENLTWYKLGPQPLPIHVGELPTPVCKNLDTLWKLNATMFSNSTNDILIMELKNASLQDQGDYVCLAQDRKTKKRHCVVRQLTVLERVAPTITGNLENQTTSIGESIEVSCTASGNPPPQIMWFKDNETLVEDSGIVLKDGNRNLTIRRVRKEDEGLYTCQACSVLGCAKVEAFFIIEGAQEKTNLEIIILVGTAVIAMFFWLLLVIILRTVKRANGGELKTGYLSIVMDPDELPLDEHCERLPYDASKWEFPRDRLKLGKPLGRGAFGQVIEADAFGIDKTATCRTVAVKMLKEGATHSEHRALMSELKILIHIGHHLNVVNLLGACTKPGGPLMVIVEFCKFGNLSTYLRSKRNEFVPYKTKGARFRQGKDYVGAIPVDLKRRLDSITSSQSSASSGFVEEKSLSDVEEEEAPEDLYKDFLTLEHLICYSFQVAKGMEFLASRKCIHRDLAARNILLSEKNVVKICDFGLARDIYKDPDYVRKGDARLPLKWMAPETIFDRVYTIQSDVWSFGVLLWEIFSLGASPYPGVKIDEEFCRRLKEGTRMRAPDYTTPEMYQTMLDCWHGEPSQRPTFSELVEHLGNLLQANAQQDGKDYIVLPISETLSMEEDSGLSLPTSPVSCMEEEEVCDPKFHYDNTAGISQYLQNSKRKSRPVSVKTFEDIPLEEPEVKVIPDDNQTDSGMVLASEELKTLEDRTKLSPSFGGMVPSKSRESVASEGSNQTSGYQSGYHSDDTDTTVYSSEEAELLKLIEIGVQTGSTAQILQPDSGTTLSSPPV

| Molecule | VEGFR2 activation by levels of VEGFR2 phosphorylation (p-VEGFR2) (VEGFR2) | pro-inflammatory markers [1] | RGC survival (primary mouse RGC [2]) [%] | increased RGC survival upon H2O2 treatment compared to control (primary mouse RGC [3]) [%] | average axon length per RGC (primary mouse RGC [4]) | average number of neurites per RGC (primary mouse RGC [4]) | percentage of RGC with axons longer than 3× cell body length (primary mouse RGC [4]) | synapse formation (primary RGC; RGC) | synaptic vesicle marker synaptophysin in axons and neurites (primary RGC) | average number of branch points of neurite per RGC (primary mouse RGC [4]) | length of extra long axons (primary mouse RGC [4]; some of the overexpressing primary RGC, correlative fluorescence and electron microscopy) [μm] | intracellular [Ca2+] (RGC) | genes involved in apoptosis and cell death (bax/bcl2 ratio) and inhibition of axon formation (Tsc1) (primary mouse RGC [5]) | genes involved in axon growth (KLF7), neurogenesis (Microtubule-associated protein 1B) and synaptic vesicle trafficking (vesicle-associated membrane protein 3) (primary mouse RGC [5]) |
| --- | --- | --- | --- | --- | --- | --- | --- | --- | --- | --- | --- | --- | --- | --- |
| B1 | can sustain VEGFR2 activation in a cell autonomous fashion | increased | 50 | 18 | significantly increases | significantly increases | significantly increases | promoted synapse formation | also express synaptic vesicle marker synaptophysin | – | – | – | – | – |
| B2 | can sustain VEGFR2 activation in a cell autonomous fashion | – | 45 | 10 | significantly increases | significantly increases | significantly increases | – | also express synaptic vesicle marker synaptophysin | significantly increase | > 1400 | decreased | down-regulation | up-regulation |
| B3 | can sustain VEGFR2 activation in a cell autonomous fashion | – | 48 | 15 | significantly increases | significantly increases | significantly increases | – | also express synaptic vesicle marker synaptophysin | significantly increase | – | decreased | – | – |
